Patent EP1745799B1

Target: ΔEGFR (extracellular-deleted mutant human EGFR) (human) (UniProt P00533)
Assay: cell-based or functional assay

Substance: T691stop neu (ectodomain-derived, carboxyl-terminal deletion mutant of the rat p185neu oncogene) (from UniProt P06494 23-687) (receptor)
- decrease of the phosphorylation content of immunoprecipitated p155ΔEGFR monomers (scanning densitometry, PY-20 blot of mAb Δ124 immunoprecipitates): 33.7%
- ratio of PTyr/ΔEGFRs (scanning densitometry): 1.04
